Laboratory results from patent publication US20190015361A1 (Maxwell Biosciences, Inc., priority 2017, published 2019).

Test system: Aβ40 (t=0 days), Aβ42 (t=0 days), Aβ42 (t=24 days)
Assay: SPRi interaction with the three immobilized Aβ forms
Type: binding, human
Conditions: analyte flowed onto the SPRi chip for 10 minutes, all three Aβ forms

Sequence of Aβ40 (t=0 days), Aβ42 (t=0 days), Aβ42 (t=24 days) (P05067 672-711 limits assumed): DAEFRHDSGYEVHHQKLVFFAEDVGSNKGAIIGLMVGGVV

B1: ovalbumin: non-correlated protein used as negative control sample in SPRi (Sigma-Aldrich, A5503) (protein)
chain: GSIGAASMEFCFDVFKELKVHHANENIFYCPIAIMSALAMVYLGAKDSTRTQINKVVRFDKLPGFGDSIEAQCGTSVNVHSSLRDILNQITKPNDVYSFSLASRLYAEERYPILPEYLQCVKELYRGGLEPINFQTAADQARELINSWVESQTNGIIRNVLQPSSVDSQTAMVLVNAIVFKGLWEKAFKDEDTQAMPFRVTEQESKPVQMMYQIGLFRVASMASEKMKILELPFASGTMSMLVLLPDEVSGLEQLESIINFEKLTEWTSSNVMEERKIKVYLPRMKMEEKYNLTSVLMAMGITDVFSSSANLSGISSAESLKISQAVHAAHAEINEAGREVVGSAEAGVDAASVSEEFRADHPFLFCIKHIATNAVLFFGRCVSP
- SPRi interaction signal: did not produce interaction signals
